The results in this text go back to publication PMC6910828 (2019).

By Kd is commonly meant the constant that tells how readily two partners part at equilibrium. Low values mean a tighter complex, high ones a looser complex.

In assay [1] the target is Cy3-labelled, prenylated Cdc42 Q61L, GTP-bound (Cy3 at the N-terminus (Cy3 N-t labeled LPETGG peptide joined by sortase); geranylgeranyl by in vitro prenylation (C-terminal prenyl moiety); GTP-bound). The assay is described as follows: GTP-bound; extraction from supported lipid bilayers.
Sequence of Cy3-labelled, prenylated Cdc42 Q61L, GTP-bound (Cy3 at the N-terminus (Cy3 N-t labeled LPETGG peptide joined by sortase); geranylgeranyl by in vitro prenylation (C-terminal prenyl moiety); GTP-bound) (chain, as listed by the source Q61L): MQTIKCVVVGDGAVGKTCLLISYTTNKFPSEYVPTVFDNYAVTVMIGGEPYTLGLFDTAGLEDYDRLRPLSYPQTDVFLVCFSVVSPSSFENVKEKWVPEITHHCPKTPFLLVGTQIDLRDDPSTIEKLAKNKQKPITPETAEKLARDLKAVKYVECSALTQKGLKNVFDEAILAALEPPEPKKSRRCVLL
The target of assay [2] is Cy3-labelled, prenylated Rho Q63L, GTP-bound (Cy3 at the N-terminus (Cy3 N-t labeled LPETGG peptide joined by sortase); geranylgeranyl by in vitro prenylation (C-terminal prenyl moiety); GTP-bound). The assay is described as above.
Sequence of Cy3-labelled, prenylated Rho Q63L, GTP-bound (Cy3 at the N-terminus (Cy3 N-t labeled LPETGG peptide joined by sortase); geranylgeranyl by in vitro prenylation (C-terminal prenyl moiety); GTP-bound) (chain, as listed by the source Q63L): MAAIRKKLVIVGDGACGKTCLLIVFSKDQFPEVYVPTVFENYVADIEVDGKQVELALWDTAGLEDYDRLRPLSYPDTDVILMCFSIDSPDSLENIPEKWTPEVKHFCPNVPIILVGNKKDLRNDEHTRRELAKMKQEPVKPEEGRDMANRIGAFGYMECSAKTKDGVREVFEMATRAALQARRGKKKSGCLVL
For assay [3], the target named is Cy3-labelled, prenylated Rho, wild type, GDP-bound (Cy3 at the N-terminus (Cy3 N-t labeled LPETGG peptide joined by sortase); geranylgeranyl by in vitro prenylation (C-terminal prenyl moiety); GDP-bound). The assay is described as follows: GDP-bound; extraction from supported lipid bilayers.
Sequence of Cy3-labelled, prenylated Rho, wild type, GDP-bound (Cy3 at the N-terminus (Cy3 N-t labeled LPETGG peptide joined by sortase); geranylgeranyl by in vitro prenylation (C-terminal prenyl moiety); GDP-bound) (chain, as listed by the source): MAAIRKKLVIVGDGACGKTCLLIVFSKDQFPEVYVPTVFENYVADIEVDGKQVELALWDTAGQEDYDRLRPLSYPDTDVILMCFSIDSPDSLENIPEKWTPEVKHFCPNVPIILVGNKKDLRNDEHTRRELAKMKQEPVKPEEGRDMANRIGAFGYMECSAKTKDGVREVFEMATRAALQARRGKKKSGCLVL
For assay [4], the target named is Cy3-labelled, prenylated Cdc42, wild type, GDP-bound (Cy3 at the N-terminus (Cy3 N-t labeled LPETGG peptide joined by sortase); geranylgeranyl by in vitro prenylation (C-terminal prenyl moiety); GDP-bound). Described as above.
Sequence of Cy3-labelled, prenylated Cdc42, wild type, GDP-bound (Cy3 at the N-terminus (Cy3 N-t labeled LPETGG peptide joined by sortase); geranylgeranyl by in vitro prenylation (C-terminal prenyl moiety); GDP-bound) (P60953 whole entry): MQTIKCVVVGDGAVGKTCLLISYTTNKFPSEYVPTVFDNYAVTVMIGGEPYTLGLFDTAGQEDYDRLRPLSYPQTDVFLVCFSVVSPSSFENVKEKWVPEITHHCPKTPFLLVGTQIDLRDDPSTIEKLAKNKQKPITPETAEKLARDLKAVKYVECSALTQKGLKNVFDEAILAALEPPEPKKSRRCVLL
Assay [5] deals with Cy3-labelled, prenylated Rho G14V, GTPγS-bound (Cy3 at the N-terminus (Cy3 N-t labeled LPETGG peptide joined by sortase); geranylgeranyl by in vitro prenylation (C-terminal prenyl moiety); GTPγS-bound). Description: GTPγS-bound; extraction from supported lipid bilayers.
Sequence of Cy3-labelled, prenylated Rho G14V, GTPγS-bound (Cy3 at the N-terminus (Cy3 N-t labeled LPETGG peptide joined by sortase); geranylgeranyl by in vitro prenylation (C-terminal prenyl moiety); GTPγS-bound) (chain, as listed by the source G14V): as the sequence (chain, as listed by the source Q63L) above, with G14V, L63Q counted along it
For assay [6], the target named is Cy3-labelled, prenylated Cdc42 G12V, GTPγS-bound (Cy3 at the N-terminus (Cy3 N-t labeled LPETGG peptide joined by sortase); geranylgeranyl by in vitro prenylation (C-terminal prenyl moiety); GTPγS-bound). Described as above.
Sequence of Cy3-labelled, prenylated Cdc42 G12V, GTPγS-bound (Cy3 at the N-terminus (Cy3 N-t labeled LPETGG peptide joined by sortase); geranylgeranyl by in vitro prenylation (C-terminal prenyl moiety); GTPγS-bound) (chain, as listed by the source G12V): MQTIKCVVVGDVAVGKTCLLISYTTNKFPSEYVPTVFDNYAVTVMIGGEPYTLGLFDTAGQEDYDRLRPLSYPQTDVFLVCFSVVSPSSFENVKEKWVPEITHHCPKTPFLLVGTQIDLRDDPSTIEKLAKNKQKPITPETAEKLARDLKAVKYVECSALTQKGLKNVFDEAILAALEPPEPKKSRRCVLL

B1: Xenopus laevis RhoGDI, wild type (natural protein)
chain: MAEHEPTPEQLHQIAAENQDEEHSVDYKPPAQKSIKEIQELDQDDESLRKYKEALLGSLPSSADPEASNVVVTKLTLLCDCAPGPLELDLTGDLEKFKKQSFTLKEGVEYRIKISFKVNKEIVSGLRYQQQTYRKGVRLDRTRYMVGSYGPRVDEYEFLTPIEEAPNGMLARGCYNIKSLFTDDDKSNHLSWEWNLHIKNDWKS
With B1, the Kd in assay [1] came out at 14.4 µM; in assay [2], 19.6 µM; in assay [3], 5.77 µM; in assay [4], 3.41 µM; in assay [5], 5.43 µM; in assay [6], 4.95 µM.
